Our source for the protein stability index values is the supplement of paper PMC10724198.

± gives the standard deviation of the averaged measurements.
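Further: PSI is a weighted mean of sequencing reads over stability bins, variants kept only with over 10 reads, mCherry proximal and sfGFP distal, peptide attached via GGGS linker.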

The subject of this data set is Saccharomyces cerevisiae. In words: protein stability index of tFT-peptide fusion (C-terminal peptide) (PSI (0-1 scale)); higher = more stable (slower turnover). The settings on record: genetic background: wild type; temperature: 30 C.
As to QKKKILNKQRTK, the protein stability index stood at 0.681 ± 0.033.
For the sequence QKKKKNRKQKIK, the protein stability index was determined as 0.696 ± 0.017.
Sequence QKKKPEKKAKRA yielded a protein stability index of 0.721 ± 0.013.
Next, QKNMVKKVENTR: 0.7637 ± 0.0067; QKPHGDVSFQVM: 0.662 ± 0.033.
To QKPKDYTEDKRD belongs 0.718 ± 0.11.
Turning to QKRAREKAPTPD, the protein stability index was 0.729 ± 0.012.
To QKTYHATQTRRR belongs 0.6839 ± 0.00099.
In turn, QLASISPSPNPS showed a protein stability index of 0.692 ± 0.021.
To QLCRPRIFTNRG belongs 0.662 ± 0.034; to QLDRRKDSLLRH, 0.746 ± 0.017.
With QLPPRLSRRLPP, the protein stability index came to 0.741 ± 0.17.
As to QLRRPPPPLPLP, the protein stability index amounted to 0.714 ± 0.0072.
Consider QLSSARTILRRP, for which the protein stability index was found to be 0.597 ± 0.0085.
QNHKSYQTQDHN: the protein stability index worked out at 0.616 ± 0.051.
In the case of QNLEDDLSIAGS, the protein stability index turned out to be 0.703 ± 0.02.
QNNRKEIKRNEI displayed a protein stability index of 0.6662 ± 0.0039.
The sequence QNPRTDEAVRSP came in with a protein stability index of 0.619 ± 0.011.
To QPPAKSRETKYR belongs 0.741 ± 0.031.
Turning to QPPPPRLPPRPP, the protein stability index stood at 0.622 ± 0.0027.
Next, QPRPSISGLSPT: 0.642 ± 0.02; QQKKCNTIKKNE: 0.637 ± 0.0024; QQLWQTHEHQAR: 0.674 ± 0.035.
Next, QQQSTKHSEERV: 0.691 ± 0.014; QRGDDFHDTSPA: 0.708 ± 0.0082.
As to QRGEGTSQGILT, the protein stability index worked out at 0.807 ± 0.13.
Sequence QSAFLFGFMSFW had a protein stability index of 0.62 ± 0.025.
For the sequence QSFGSYYLTIAL, the protein stability index came out at 0.67 ± 0.036.
QSHNDIRDGPPR came in with a protein stability index of 0.679 ± 0.021.
As to QSIESKKIKQKE, the protein stability index is 0.7109 ± 0.0048.
Next, QSNPAERASSRL: 0.692 ± 0.022.
As to QSQMEKGTIVWT, the protein stability index came out at 0.705 ± 0.011.
To QSSWVGRGVRGG belongs 0.647 ± 0.014; to QTLKKRRNRSRG, 0.684 ± 0.041; to QTLQHLQTPSIS, 0.761 ± 0.092.
For QTYEGSKGHLRD, the protein stability index is 0.6625 ± 0.0044.
As for QTYQQSVKNRDD, the protein stability index was determined as 0.666 ± 0.061.
Next, QVDVLVCKLEVP: 0.672 ± 0.11.
Next, QVFKHVKHIEFD: 0.725 ± 0.062; QVHPKRPLNQSL: 0.735 ± 0.054; QVSLLVKKSKLR: 0.679 ± 0.049.
Sequence QVYGEWASAGWG had a protein stability index of 0.718 ± 0.04.
In turn, QWLGRDLKSREL showed a protein stability index of 0.691 ± 0.064.
Regarding RACKKGTKRIRI, the protein stability index came out at 0.613 ± 0.06.
To RAGHREIARQKG belongs 0.6307 ± 0.0013; to RAGPPPPPSITL, 0.83 ± 0.085.
For RAGRVRAPGRWP, the protein stability index amounted to 0.728 ± 0.017.
In the case of RAIRWFGGRLVG, the protein stability index came to 0.7228 ± 0.0049.
Regarding RAKGTGRRLGVA, the protein stability index is 0.676 ± 0.013.
For RALVIKREALQI, the protein stability index is 0.59 ± 0.03.
With RASGNHVNQVDC, the protein stability index amounted to 0.719 ± 0.036.
Regarding RASGSFPSLVFS, the protein stability index came out at 0.734 ± 0.12.
RASWVRTLMSCQ registered a protein stability index of 0.58161 ± 0.00022.
RATERIVNIKGK yielded a protein stability index of 0.63277 ± 0.00036.
Consider RATLPPSAASLP, for which the protein stability index amounted to 0.677 ± 0.1.
Next, RATSCAAPLLAR: 0.6009 ± 0.0047; RATTDGGRGGRR: 0.696 ± 0.037; RAVAGGPMPGSG: 0.732 ± 0.044.
Next, RCAIMGRGGIVT: 0.686 ± 0.018; RCGVGGAVSFWW: 0.72 ± 0.05.
To RCLGVCRAESLP belongs 0.682 ± 0.034; to RCQYRRTMSITI, 0.635 ± 0.034.
Sequence RCRNVGAVATPR displayed a protein stability index of 0.643 ± 0.1.
RCSDILGKGKHV gave a protein stability index of 0.661 ± 0.0084.
To RDAGPSKERNRR belongs 0.675 ± 0.039.
For RDARTWTVSHGT, the protein stability index was 0.703 ± 0.033.
RDELSYIDICLT returned a protein stability index of 0.691 ± 0.025.
RDFLLLASHLRF displayed a protein stability index of 0.764 ± 0.056.
To RDGYMVKVYGVK belongs 0.707 ± 0.1; to RDLEAVRSEDHR, 0.6766 ± 0.0047; to RDLLYHNCRNMI, 0.695 ± 0.027.
The sequence RDLYHPFQSHQS registered a protein stability index of 0.705 ± 0.019.
Turning to RDPSVVGLGRPP, the protein stability index came out at 0.604 ± 0.0076.
The sequence RDPTTYGRSKEN gave a protein stability index of 0.655 ± 0.023.
On to RDQPPPLPFTRP, for which the protein stability index was found to be 0.712 ± 0.1.
The sequence RDRGWSRGRQVH showed a protein stability index of 0.662 ± 0.015.
To RDSKDMTWISTS belongs 0.6755 ± 0.0024; to RDSVLSFSALQV, 0.681 ± 0.0097; to REIVLQTSAAYN, 0.613 ± 0.037.
For REKRSVTQSTTD, the protein stability index was 0.796 ± 0.12.
As for REKSLKINKKKN, the protein stability index stood at 0.676 ± 0.0068.
To RERLSRGGEGFE belongs 0.693 ± 0.021; to RERRGPTDLKRH, 0.712 ± 0.041; to RFARQSNTFSQS, 0.659 ± 0.013.
In the case of RFASGAVLSWAC, the protein stability index was found to be 0.695 ± 0.015.
The sequence RFEISNLVFIPR had a protein stability index of 0.686 ± 0.033.
Take RFFGAVSFQFCL: the protein stability index is 0.699 ± 0.011.
Next, RFFYGGRRTQQT: 0.753 ± 0.058; RFLAHLVRPFCG: 0.722 ± 0.039.
In the case of RFNGWRDKEAME, the protein stability index was 0.707 ± 0.036.
Regarding RFNLLLSATEDR, the protein stability index is 0.716 ± 0.07.
As for RFPFFLLPPLSS, the protein stability index is 0.65 ± 0.091.
Next, RFPLLAPPRPLP: 0.7318 ± 0.0043; RFPLLPLLRPPP: 0.6494 ± 0.0031.
RFPPPPPPPPLL gave a protein stability index of 0.718 ± 0.078.
Consider RFSLGLIFLPSL, for which the protein stability index is 0.68 ± 0.044.
Sequence RFSYFPALFFPS gave a protein stability index of 0.678 ± 0.043.
With RFVDLASFLTFR, the protein stability index was found to be 0.587 ± 0.031.
For RGAEACGGVPGQ, the protein stability index came out at 0.671 ± 0.024.
To RGAKKMNHRGRS belongs 0.675 ± 0.052; to RGDHPAAGFPCG, 0.686 ± 0.033; to RGFVVGGGGWLG, 0.706 ± 0.051.
RGGAGGRKVSVG yielded a protein stability index of 0.651 ± 0.05.
RGGAGGRLGCGG showed a protein stability index of 0.71 ± 0.071.
Sequence RGGGFIGSFFMG gave a protein stability index of 0.751 ± 0.15.
RGGGGAWAGGVA came in with a protein stability index of 0.734 ± 0.019.
As for RGGGGGEWGEQR, the protein stability index worked out at 0.702 ± 0.046.
Consider RGGGGGSVSFWW, for which the protein stability index came out at 0.676 ± 0.071.
For RGGGGPTVEDRR, the protein stability index amounted to 0.681 ± 0.007.
The sequence RGGGGRGGSEGS gave a protein stability index of 0.686 ± 0.017.
In the case of RGGPPPPPSITL, the protein stability index was found to be 0.851 ± 0.12.
Regarding RGGSVGRGRLCL, the protein stability index is 0.643 ± 0.014.
The sequence RGHLPPIGLTRH came in with a protein stability index of 0.675 ± 0.013.
RGILGAGGAGRG had a protein stability index of 0.744 ± 0.079.
RGKATREAGKKR showed a protein stability index of 0.7916 ± 0.0028.
RGLLLSRRWFSP registered a protein stability index of 0.641 ± 0.099.
